Measured values taken from paper doi:10.1101/2021.03.22.436508.

Tests used:
[1] = molecular target: Vibrio cholerae ParD2:ParE2 6:2 hetero-octameric complex (Vibrio cholerae biovar El Tor strain N16961); test: native MS
[2] = molecular target: Vibrio cholerae ParE2 toxin with C-terminal histidine tag (Vibrio cholerae biovar El Tor strain N16961); test: SEC-MALS
[3] = molecular target: Vibrio cholerae ParD2 antitoxin (Vibrio cholerae biovar El Tor strain N16961); test: native MS
[4] = molecular target: Vibrio cholerae ParE2 toxin with C-terminal histidine tag (Vibrio cholerae biovar El Tor strain N16961); test: native MS
[5] = molecular target: Vibrio cholerae ParD2 antitoxin (Vibrio cholerae biovar El Tor strain N16961); test: crystal structure
[6] = molecular target: Vibrio cholerae ParE2 toxin with C-terminal histidine tag (Vibrio cholerae biovar El Tor strain N16961); test: SAXS
[7] = molecular target: Vibrio cholerae ParD2 antitoxin (Vibrio cholerae biovar El Tor strain N16961); test: crystal structure; remark: listed apart in the source
[8] = molecular target: Vibrio cholerae ParE2 toxin with C-terminal histidine tag (Vibrio cholerae biovar El Tor strain N16961); test: crystal structure

Q: Which stoichiometry N [1] does the source give for “Vibrio cholerae ParD2:ParE2 6:2 hetero-octameric complex” here?
A: 2

Q: With “Vibrio cholerae ParD2 antitoxin (natural protein)” as the substance, how does the stoichiometry N (ParD2 per ParE2 (printed as 6:2)) [2] read?
A: 3

Q: And the stoichiometry N [3]?
A: 2

Q: What about the stoichiometry N (ParD2 per ParE2 (printed as 6:2)) [4] of the same substance?
A: 3

Q: And the stoichiometry N [5]?
A: 6

Q: And the stoichiometry N (ParD2 per ParE2 (printed as 6:2)) [6]?
A: 3

Q: And the stoichiometry N [7]?
A: 2

Q: What about the stoichiometry N (ParD2 per ParE2 (printed as 6:2)) [8] of the same substance?
A: 3
